The text below walks through data of publication PMC9769707.

The target in the series is T1, Dnr (Pseudomonas aeruginosa PAO1) (UniProt Q51441).
T1 sequence: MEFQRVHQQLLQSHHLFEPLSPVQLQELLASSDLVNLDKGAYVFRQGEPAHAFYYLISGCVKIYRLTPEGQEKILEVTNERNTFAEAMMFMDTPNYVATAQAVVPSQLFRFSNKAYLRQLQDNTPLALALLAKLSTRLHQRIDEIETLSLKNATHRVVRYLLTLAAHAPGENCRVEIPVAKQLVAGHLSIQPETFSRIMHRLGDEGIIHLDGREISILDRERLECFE
The experiment in a line: EMSA. In general terms: A gel shift assay detects complexes by their altered migration in electrophoresis.

With “GGCGGCTGACTCCGATGCAATGGTGGGGGAGCAATGCATCGGGGGGATGCCCTGATCATCGCAGTCCCTTGCTGGATCACAGGCATGACAGGGAAAACGGCGCAGAACCTGTCCTTGGCGATCCCTCTGGTCCGTCACTGGCGACGAACTACAAAAGACGCTAGAACAGGTCTATGGATTTGCAAAATAAAATTTTCGTTGGACTCCC (double strand) [hcp3 promoter fragment]”, the binding result is “no binding”.
